{"source": "patent US8114832", "key": {"[1]": {"molecular_target": "Native MSA (nMSA), P07724", "sequence (P07724 25-608)": "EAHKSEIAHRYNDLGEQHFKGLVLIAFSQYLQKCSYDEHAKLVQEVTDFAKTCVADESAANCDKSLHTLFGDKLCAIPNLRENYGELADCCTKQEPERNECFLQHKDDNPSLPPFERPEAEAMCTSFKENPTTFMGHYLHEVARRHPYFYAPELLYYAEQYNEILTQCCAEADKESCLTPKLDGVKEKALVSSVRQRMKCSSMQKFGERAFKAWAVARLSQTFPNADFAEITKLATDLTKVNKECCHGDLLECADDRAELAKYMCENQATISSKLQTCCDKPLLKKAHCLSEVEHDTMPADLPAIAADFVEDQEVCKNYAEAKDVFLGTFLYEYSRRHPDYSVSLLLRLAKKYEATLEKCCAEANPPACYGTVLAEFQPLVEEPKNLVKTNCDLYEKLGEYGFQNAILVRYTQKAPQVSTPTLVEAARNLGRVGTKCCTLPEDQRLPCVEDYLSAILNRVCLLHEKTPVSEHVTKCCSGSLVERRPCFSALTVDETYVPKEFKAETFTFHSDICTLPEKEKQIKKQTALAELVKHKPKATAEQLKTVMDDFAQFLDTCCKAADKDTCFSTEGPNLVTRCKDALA"}, "[2]": {"molecular_target": "heat/acid denatured glucagon, P01275", "sequence (P01275 53-81)": "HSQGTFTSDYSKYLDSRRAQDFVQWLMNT"}, "[3]": {"molecular_target": "T1, heat-denatured OVA (dOVA), P01012", "T1 chain": "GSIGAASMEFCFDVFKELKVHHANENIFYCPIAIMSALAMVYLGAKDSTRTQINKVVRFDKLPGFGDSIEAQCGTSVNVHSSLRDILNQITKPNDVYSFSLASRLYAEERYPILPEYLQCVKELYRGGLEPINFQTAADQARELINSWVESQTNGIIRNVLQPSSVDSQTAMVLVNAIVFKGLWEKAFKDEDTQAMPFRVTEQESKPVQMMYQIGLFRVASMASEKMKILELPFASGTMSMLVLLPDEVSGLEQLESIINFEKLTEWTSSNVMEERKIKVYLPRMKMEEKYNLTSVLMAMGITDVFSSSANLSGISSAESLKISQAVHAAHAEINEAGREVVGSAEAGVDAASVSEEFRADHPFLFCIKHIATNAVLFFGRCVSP"}, "[4]": {"molecular_target": "heat-denatured MSA, P07724", "sequence (P07724 25-608)": "as the sequence (P07724 25-608) above"}, "[5]": {"molecular_target": "reduced-alkylated MSA (alkyl-MSA), P07724", "sequence (P07724 25-608)": "as above"}, "[6]": {"molecular_target": "T2, human fibrin α-chain(148-160) amyloid fragment with Lys157Gly mutation (FP13)", "T2 chain": "KRLEVDIDIGIRS"}, "[7]": {"molecular_target": "T3, freshly dissolved FP13 K157G", "T3 chain": "KRLEVDIDIGIRS"}, "[8]": {"molecular_target": "human-modified gelatin (Gelofusine), stored at 4° C."}, "[9]": {"molecular_target": "Human amyloid-β (1-40) Dutch type"}, "[10]": {"molecular_target": "T4, non-amyloid fragment FP10 of human fibrin α-chain(148-157)", "T4 chain": "KRLEVDIDIK"}, "mIAPP": {"molecular_target": "T5, mIAPP", "T5 sequence (P12968 38-74, species assumed, looked up)": "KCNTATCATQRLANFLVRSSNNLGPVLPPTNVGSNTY"}, "[11]": {"molecular_target": "glycated hemoglobin (Hb-AGE), P69905", "sequence (P69905 2-142, chain 1 of 2)": "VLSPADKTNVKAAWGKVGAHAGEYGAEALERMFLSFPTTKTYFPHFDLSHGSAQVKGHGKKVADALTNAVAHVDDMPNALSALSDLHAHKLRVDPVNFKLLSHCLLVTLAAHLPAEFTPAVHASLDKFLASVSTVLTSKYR", "sequence (chain, as listed by the source, chain 2 of 2)": "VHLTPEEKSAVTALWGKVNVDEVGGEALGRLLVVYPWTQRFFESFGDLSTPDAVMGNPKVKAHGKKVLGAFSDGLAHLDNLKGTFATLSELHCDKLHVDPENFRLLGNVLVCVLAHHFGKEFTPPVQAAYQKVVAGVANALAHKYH"}, "[12]": {"molecular_target": "modified gelatin for infusion stored at 37° C."}}}
{"protein": "tissue-type plasminogen activator (tPA) (protein) SYQVICRDEKTQMIYQQHQSWLRPVLRSNRVEYCWCNSGRAQCHSVPVKSCSEPRCFNGGTCQQALYFSDFVCQCPEGFAGKCCEIDTRATCYEDQGISYRGTWSTAESGAECTNWNSSALAQKPYSGRRPDAIRLGLGNHNYCRNPDRDSKPWCYVFKAGKYSSEFCSTPACSEGNSDCYFGNGSAYRGTHSLTESGASCLPWNSMILIGKVYTAQNPSAQALGLGKHNYCRNPDGDAKPWCHVLKNRRLTWEYCDVPSCSTCGLRQYSQPQFRIKGGLFADIASHPWQAAIFAKHRRSPGERFLCGGILISSCWILSAAHCFQERFPPHHLTVILGRTYRVVPGEEEQKFEVEKYIVHKEFDDDTYDNDIALLQLKSDSSRCAQESSVVRTVCLPPADLQLPDWTECELSGYGKHEALSPFYSERLKEAHVRLYPSSRCTSQHLLNRTVTDNMLCAGDTRSGGPQANLHDACQGDSGGPLVCLNDGRMTLVGIISWGLGCGQKDVPGVYTKVTNYLDWIRDNMRP", "values": [{"measurement": "Plg-activation assay", "setting": "[1]", "value": "native MSA enhanced ThT fluorescence to some extent, but this was not reflected by stimulation of tPA activation"}, {"measurement": "tPA activation assay", "setting": "endostatin, P39060", "value": "the absence of tPA activating properties in 100 µg ml^-1 endostatin"}, {"measurement": "tPA activation assay", "setting": "[2]", "value": "a potent activator of tPA was obtained"}, {"measurement": "tPA activation assay", "setting": "native glucagon, P01275", "value": "at high glucagon concentration, also native glucagon has some tPA activating potential"}, {"measurement": "Plg-activation assay", "setting": "[3]", "value": "The presence of the cross-β structure conformation was established with ThT fluorescence and Plg-activation assays and by TEM imaging"}, {"measurement": "tPA activation assay", "setting": "[4]", "value": "Although heat-denatured MSA and alkylated MSA enhance ThT fluorescence to a similar extent, they differ in tPA activating potential"}, {"measurement": "tPA activation assay", "setting": "[5]", "value": "Although heat-denatured MSA and alkylated MSA enhance ThT fluorescence to a similar extent, they differ in tPA activating potential"}, {"measurement": "chromogenic Plg-activation assay", "setting": "[6]", "value": "The positive control was amyloid fibrin peptide FP13"}]}
{"protein": "factor XII (protein) IPPWEAPKEHKYKAEEHTVVLTVTGEPCHFPFQYHRQLYHKCTHKGRPGPQPWCATTPNFDQDQRWGYCLEPKKVKDHCSKHSPCQKGGTCVNMPSGPHCLCPQHLTGNHCQKEKCFEPQLLRFFHKNEIWYRTEQAAVARCQCKGPDAHCQRLASQACRTNPCLHGGRCLEVEGHRLCHCPVGYTGAFCDVDTKASCYDGRGLSYRGLARTTLSGAPCQPWASEATYRNVTAEQARNWGLGGHAFCRNPDNDIRPWCFVLNRDRLSWEYCDLAQCQTPTQAAPPTPVSPRLHVPLMPAQPAPPKPQPTTRTPPQSQTPGALPAKREQPPSLTRNGPLSCGQRLRKSLSSMTRVVGGLVALRGAHPYIAALYWGHSFCAGSLIAPCWVLTAAHCLQDRPAPEDLTVVLGQERRNHSCEPCQTLAVRSYRLHEAFSPVSYQHDLALLRLQEDADGSCALLSPYVQPVCLPSGAARPSETTLCQVAGWGHQFEGAEEYASFLQEAQVPFLSLERCSAPDVHGSSILPGMLCAGFLEGGTDACQGDSGGPLVCEDQAAERRLTLQGIISWGSGCGDRNKPGVYTDVAYYLAWIREHTVS", "values": [{"measurement": "auto-activation of purified factor XII, substrate S-2222", "setting": "[7]", "value": "Freshly dissolved native Hb, ultracentrifuged for one hour at 100,000*g, and freshly dissolved FP13 K157G did not or hardly auto-activate factor XII (not shown)"}, {"measurement": "chromogenic kallikrein activity assay", "setting": "[8]", "value": "Only gelatin kept at 37 °C activated factor XII"}, {"measurement": "auto-activation of purified factor XII, substrate S-2222", "setting": "[9]", "value": "the potency of the Aβ(1-40) E22Q was somewhat lower"}, {"measurement": "conversion of Chromozym PK, upon formation of kallikrein from prekallikrein by activated factor XII", "setting": "[9]", "value": "amyloid-like peptide aggregates of FP13 and Aβ stimulate the activation of factor XII"}, {"measurement": "factor XII/kallikrein chromogenic assay", "setting": "TTR11", "value": "cross-β structure conformation rich peptides LAM12 and TTR11 stimulate factor XII activation, to a similar extent as kaolin"}, {"measurement": "conversion of Chromozym PK, upon formation of kallikrein from prekallikrein by activated factor XII", "setting": "[10]", "value": "non-amyloid controls FP10 and mIAPP do not activate factor XII"}, {"measurement": "factor XII/kallikrein chromogenic assay", "setting": "LAM12", "value": "cross-β structure conformation rich peptides LAM12 and TTR11 stimulate factor XII activation, to a similar extent as kaolin"}, {"measurement": "conversion of Chromozym PK, upon formation of kallikrein from prekallikrein by activated factor XII", "setting": "mIAPP", "value": "non-amyloid controls FP10 and mIAPP do not activate factor XII"}, {"measurement": "auto-activation of purified factor XII, substrate S-2222", "setting": "[11]", "value": "FP13 K157G and Hb-AGE have a potency to induce auto-activation that was similar to the established surface activator DXS500k"}, {"measurement": "auto-activation of purified factor XII, substrate S-2222", "setting": "[6]", "value": "FP13 K157G and Hb-AGE have a potency to induce auto-activation that was similar to the established surface activator DXS500k"}, {"measurement": "conversion of Chromozym PK, upon formation of kallikrein from prekallikrein by activated factor XII", "setting": "[6]", "value": "amyloid-like peptide aggregates of FP13 and Aβ stimulate the activation of factor XII"}, {"measurement": "chromogenic kallikrein activity assay", "setting": "[12]", "value": "Only gelatin kept at 37 °C activated factor XII"}, {"measurement": "auto-activation of purified factor XII, substrate S-2222", "setting": "native Hb, P69905", "value": "Freshly dissolved native Hb, ultracentrifuged for one hour at 100,000*g, and freshly dissolved FP13 K157G did not or hardly auto-activate factor XII (not shown)"}]}
